Measurements: patent publication US20220064276A1

Legend:
[1] = target: LTBP-proTGFβ1 in the LN229 CAGA12 assay of Table 20 (endogenous or over-expressed murine LTBP1 not stated); experiment: cell-based or functional assay
[2] = target: human LRRC33-proTGFβ1 complex (human) (UniProt Q86YC3); experiment: Octet, antibody immobilized
human LRRC33-proTGFβ1 complex (human), sequence (Q86YC3 19-650 limits assumed, chain 1 of 2): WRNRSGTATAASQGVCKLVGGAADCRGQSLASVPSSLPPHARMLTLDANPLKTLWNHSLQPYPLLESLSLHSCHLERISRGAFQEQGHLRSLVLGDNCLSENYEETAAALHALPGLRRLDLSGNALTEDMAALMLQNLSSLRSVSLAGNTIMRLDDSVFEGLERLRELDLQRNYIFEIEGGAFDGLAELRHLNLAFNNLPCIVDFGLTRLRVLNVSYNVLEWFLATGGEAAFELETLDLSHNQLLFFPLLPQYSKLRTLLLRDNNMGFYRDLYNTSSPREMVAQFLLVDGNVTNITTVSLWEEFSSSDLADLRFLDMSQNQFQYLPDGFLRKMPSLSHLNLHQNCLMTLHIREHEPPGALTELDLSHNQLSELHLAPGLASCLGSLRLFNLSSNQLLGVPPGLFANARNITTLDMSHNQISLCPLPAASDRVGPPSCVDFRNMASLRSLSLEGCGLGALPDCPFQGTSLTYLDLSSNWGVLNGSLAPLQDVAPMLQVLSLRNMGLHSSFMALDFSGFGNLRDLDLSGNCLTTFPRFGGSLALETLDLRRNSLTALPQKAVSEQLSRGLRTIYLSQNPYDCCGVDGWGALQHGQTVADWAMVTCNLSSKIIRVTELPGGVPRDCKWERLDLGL
human LRRC33-proTGFβ1 complex (human), sequence (chain, as listed by the source limits assumed, chain 2 of 2): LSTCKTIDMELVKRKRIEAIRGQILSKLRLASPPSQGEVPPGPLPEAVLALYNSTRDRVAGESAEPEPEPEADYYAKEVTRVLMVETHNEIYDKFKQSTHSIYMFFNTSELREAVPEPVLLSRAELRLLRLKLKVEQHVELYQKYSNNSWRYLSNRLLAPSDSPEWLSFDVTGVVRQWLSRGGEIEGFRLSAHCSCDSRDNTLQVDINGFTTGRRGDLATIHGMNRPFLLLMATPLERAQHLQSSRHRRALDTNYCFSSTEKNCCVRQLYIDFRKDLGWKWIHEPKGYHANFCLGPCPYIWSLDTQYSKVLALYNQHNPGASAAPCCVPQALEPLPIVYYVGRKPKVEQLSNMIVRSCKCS

IC50 (CAGA12 luciferase) [1] [nM] | Response (nm) [2] [nm] | Binder
0.775 | – | SR-AB57-HuFab (Fab, V domains shown) VH: QVQLVESGGGVVQPGRSLRLSCAASGFTFRSYVMHWVRQAPGKGLEWVAVISHEGSGKYYADSVKGRFTISRDNSKNTLYLQMNSLRAEDTAVYYCALPRIAARRGGFGSWGQGTLVTVSS VL: NFMLTQPHSVSESPGKTVTISCTRSSGNIDYNYVQWYQQRPGSSPTTVIYEDNVRPSGVPDRFSGSIDSSSNSASLTISGLKTEDEADYYCQGYDWDTQGVVFGGGTKLTVL
0.742 | – | SR-AB60-HuFab (Fab, V domains shown) VH: QVQLVESGGGVVQPGRSLRLSCAASGFTFRSYVMHWVRQAPGKGLEWVAVISHEGSGKYYADSVKGRFTISRDNSKNTLYLQMNSLRAEDTAVYYCALPRIAARRGGFGTWGQGTLVTVSS VL: NFMLTQPHSVSESPGKTVTISCTRSSGNIDYNYVQWYQQRPGSSPTTVIYEDNVRPSGVPDRFSGSIDSSSNSASLTISGLKTEDEADYYCQSYDYDTQGVVFGGGTKLTVL
0.47 | – | SR-AB61-HuFab (Fab, V domains shown) VH: QVQLVESGGGVVQPGRSLRLSCAASGFTFRSYVMHWVRQAPGKGLEWVAVISHEGSGKYYADSVKGRFTISRDNSKNTLYLQMNSLRAEDTAVYYCALPRIAARRGGFGTWGQGTLVTVSS VL: NFMLTQPHSVSESPGKTVTISCTRSSGNIDYNYVQWYQQRPGSSPTTVIYEDNVRPSGVPDRFSGSIDSSSNSASLTISGLKTEDEADYYCQGYDWDTQGVVFGGGTKLTVL
4.86 | – | SR-AB58-HuFab (Fab, V domains shown) VH: QVQLVESGGGVVQPGRSLRLSCAASGFTFRSYVMHWVRQAPGKGLEWVAVISHEGSGKYYADSVKGRFTISRDNSKNTLYLQMNSLRAEDTAVYYCALPRIAARRGGFGTWGQGTLVTVSS VL: NFMLTQPHSVSESPGKTVTISCTRSSGNIDYNYVQWYQQRPGSSPTTVIYEDNVRPSGVPDRFSGSIDSSSNSASLTISGLKTEDEADYYCQSYDSDNQRVVFGGGTKLTVL
0.195 | – | SR-AB59-HuFab (Fab, V domains shown) VH: QVQLVESGGGVVQPGRSLRLSCAASGFTFRSYVMHWVRQAPGKGLEWVAVISHEGSGKYYADSVKGRFTISRDNSKNTLYLQMNSLRAEDTAVYYCALPRIAARRGGFGTWGQGTLVTVSS VL: NFMLTQPHSVSESPGKTVTISCTRSSGNIDYNYVQWYQQRPGSSPTTVIYEDNVRPSGVPDRFSGSIDSSSNSASLTISGLKTEDEADYYCQSYDYDNQAVVFGGGTKLTVL
0.439 | – | SR-AB56-HuFab (Fab, V domains shown) VH: QVQLVESGGGVVQPGRSLRLSCAASGFTFRSYVMHWVRQAPGKGLEWVAVISHEGSGKYYADSVKGRFTISRDNSKNTLYLQMNSLRAEDTAVYYCALPRIAARRGGFGSWGQGTLVTVSS VL: NFMLTQPHSVSESPGKTVTISCTRSSGNIDYNYVQWYQQRPGSSPTTVIYEDNVRPSGVPDRFSGSIDSSSNSASLTISGLKTEDEADYYCQSYDYDTQGVVFGGGTKLTVL

Continued, binder first:

Binder | IC50 (CAGA12 luciferase) [1] [nM] | Response (nm) [2] [nm]
SR-AB47-HuFab (Fab, V domains shown) VH: QVQLVESGGGVVQPGRSLRLSCAASGFTFRSYVMHWVRQAPGKGLEWVAVISHEGSGKYYADSVKGRFTISRDNSKNTLYLQMNSLRAEDTAVYYCARPRIAARRGGFGSWGQGTLVTVSS VL: NFMLTQPHSVSESPGKTVTISCTRSSGNIDYNYVQWYQQRPGSSPTTVIYEDNVRPSGVPDRFSGSIDSSSNSASLTISGLKTEDEADYYCQSYDYDNQAVVFGGGTKLTVL | 0.186 | –
SR-AB51-HuFab (Fab, V domains shown) VH: QVQLVESGGGVVQPGRSLRLSCAASGFTFRSYVMHWVRQAPGKGLEWVAVISHEGSGKYYADSVKGRFTISRDNSKNTLYLQMNSLRAEDTAVYYCARPRIAARRGGFGTWGQGTLVTVSS VL: NFMLTQPHSVSESPGKTVTISCTRSSGNIDYNYVQWYQQRPGSSPTTVIYEDNVRPSGVPDRFSGSIDSSSNSASLTISGLKTEDEADYYCQSYDYDNQAVVFGGGTKLTVL | 0.535 | –
SR-AB49-HuFab (Fab, V domains shown) VH: QVQLVESGGGVVQPGRSLRLSCAASGFTFRSYVMHWVRQAPGKGLEWVAVISHEGSGKYYADSVKGRFTISRDNSKNTLYLQMNSLRAEDTAVYYCARPRIAARRGGFGSWGQGTLVTVSS VL: NFMLTQPHSVSESPGKTVTISCTRSSGNIDYNYVQWYQQRPGSSPTTVIYEDNVRPSGVPDRFSGSIDSSSNSASLTISGLKTEDEADYYCQGYDWDTQGVVFGGGTKLTVL | 1.02 | –
SR-AB41 Fab (Fab, V domains shown) VH: QVQLVESGGGVVQPGRSLRLSCAASGFTFRSYVMHWVRQAPGKGLEWVAVISHEGSLKYYADSVKGRFTISRDNSKNTLYLQMNSLRAEDTAVYYCARPRIAARRGGFGYWGQGTLVTVSS VL: NFMLTQPHSVSESPGKTVTISCTRSSGNIDNNYVQWYQQRPGSSPTTVIYEDNQRPSGVPDRFSGSIDSSSNSASLTISGLKTEDEADYYCQSYDYDNQAVVFGGGTKLTVL | 0.486 | –
SR-AB42-HuFab (Fab, V domains shown) VH: QVQLVESGGGVVQPGRSLRLSCAASGFTFRSYVMHWVRQAPGKGLEWVAVISHEGSLKYYADSVKGRFTISRDNSKNTLYLQMNSLRAEDTAVYYCARPRIAARRGGFGYWGQGTLVTVSS VL: NFMLTQPHSVSESPGKTVTISCTRSSGNIDNNYVQWYQQRPGSSPTTVIYEDNQRPSGVPDRFSGSIDSSSNSASLTISGLKTEDEADYYCQSYDYDTQGVVFGGGTKLTVL | 0.667 | –
SR-AB22 (antibody, IgG1, V domains shown) VH: QVQLVESGGGVVQPGRSLRLSCAASGFTFRSYVMHWVRQAPGKGLEWVAVISHEGSLKYYADSVKGRFTISRDNSKNTLYLQMNSLRAEDTAVYYCAVPRIAARRGGFGYWGQGTLVTVSS VL: NFMLTQPHSVSESPGKTVTISCTRSSGNIDNNYVQWYQQRPGSSPTTVIYEDNQRPSGVPDRFSGSIDSSSNSASLTISGLKTEDEADYYCQSYDSDNQGVVFGGGTKLTVL | – | 0.133
SR-AB55-HuFab (Fab, V domains shown) VH: QVQLVESGGGVVQPGRSLRLSCAASGFTFRSYVMHWVRQAPGKGLEWVAVISHEGSGKYYADSVKGRFTISRDNSKNTLYLQMNSLRAEDTAVYYCALPRIAARRGGFGSWGQGTLVTVSS VL: NFMLTQPHSVSESPGKTVTISCTRSSGNIDYNYVQWYQQRPGSSPTTVIYEDNVRPSGVPDRFSGSIDSSSNSASLTISGLKTEDEADYYCQSYDYDNQAVVFGGGTKLTVL | 0.536 | –
SR-AB52-HuFab (Fab, V domains shown) VH: QVQLVESGGGVVQPGRSLRLSCAASGFTFRSYVMHWVRQAPGKGLEWVAVISHEGSGKYYADSVKGRFTISRDNSKNTLYLQMNSLRAEDTAVYYCARPRIAARRGGFGTWGQGTLVTVSS VL: NFMLTQPHSVSESPGKTVTISCTRSSGNIDYNYVQWYQQRPGSSPTTVIYEDNVRPSGVPDRFSGSIDSSSNSASLTISGLKTEDEADYYCQSYDYDTQGVVFGGGTKLTVL | 0.459 | –
SR-AB50-HuFab (Fab, V domains shown) VH: QVQLVESGGGVVQPGRSLRLSCAASGFTFRSYVMHWVRQAPGKGLEWVAVISHEGSGKYYADSVKGRFTISRDNSKNTLYLQMNSLRAEDTAVYYCARPRIAARRGGFGTWGQGTLVTVSS VL: NFMLTQPHSVSESPGKTVTISCTRSSGNIDYNYVQWYQQRPGSSPTTVIYEDNVRPSGVPDRFSGSIDSSSNSASLTISGLKTEDEADYYCQSYDSDNQRVVFGGGTKLTVL | 11 | –
SR-AB54-HuFab (Fab, V domains shown) VH: QVQLVESGGGVVQPGRSLRLSCAASGFTFRSYVMHWVRQAPGKGLEWVAVISHEGSGKYYADSVKGRFTISRDNSKNTLYLQMNSLRAEDTAVYYCALPRIAARRGGFGSWGQGTLVTVSS VL: NFMLTQPHSVSESPGKTVTISCTRSSGNIDYNYVQWYQQRPGSSPTTVIYEDNVRPSGVPDRFSGSIDSSSNSASLTISGLKTEDEADYYCQSYDSDNQRVVFGGGTKLTVL | 5.87 | –
SR-AB43-HuFab (Fab, V domains shown) VH: QVQLVESGGGVVQPGRSLRLSCAASGFTFRSYVMHWVRQAPGKGLEWVAVISHEGSLKYYADSVKGRFTISRDNSKNTLYLQMNSLRAEDTAVYYCARPRIAARRGGFGYWGQGTLVTVSS VL: NFMLTQPHSVSESPGKTVTISCTRSSGNIDYNYVQWYQQRPGSSPTTVIYEDNVRPSGVPDRFSGSIDSSSNSASLTISGLKTEDEADYYCQSYDSDNQRVVFGGGTKLTVL | 1.08 | –
SR-AB48-HuFab (Fab, V domains shown) VH: QVQLVESGGGVVQPGRSLRLSCAASGFTFRSYVMHWVRQAPGKGLEWVAVISHEGSGKYYADSVKGRFTISRDNSKNTLYLQMNSLRAEDTAVYYCARPRIAARRGGFGSWGQGTLVTVSS VL: NFMLTQPHSVSESPGKTVTISCTRSSGNIDYNYVQWYQQRPGSSPTTVIYEDNVRPSGVPDRFSGSIDSSSNSASLTISGLKTEDEADYYCQSYDYDTQGVVFGGGTKLTVL | 0.523 | –
SR-AB53-HuFab (Fab, V domains shown) VH: QVQLVESGGGVVQPGRSLRLSCAASGFTFRSYVMHWVRQAPGKGLEWVAVISHEGSGKYYADSVKGRFTISRDNSKNTLYLQMNSLRAEDTAVYYCARPRIAARRGGFGTWGQGTLVTVSS VL: NFMLTQPHSVSESPGKTVTISCTRSSGNIDYNYVQWYQQRPGSSPTTVIYEDNVRPSGVPDRFSGSIDSSSNSASLTISGLKTEDEADYYCQGYDWDTQGVVFGGGTKLTVL | 1.18 | –
SR-AB46-HuFab (Fab, V domains shown) VH: QVQLVESGGGVVQPGRSLRLSCAASGFTFRSYVMHWVRQAPGKGLEWVAVISHEGSGKYYADSVKGRFTISRDNSKNTLYLQMNSLRAEDTAVYYCARPRIAARRGGFGSWGQGTLVTVSS VL: NFMLTQPHSVSESPGKTVTISCTRSSGNIDYNYVQWYQQRPGSSPTTVIYEDNVRPSGVPDRFSGSIDSSSNSASLTISGLKTEDEADYYCQSYDSDNQRVVFGGGTKLTVL | 0.495 | –
SR-AB23 Fab (Fab, V domains shown) VH: QVQLVESGGGVVQPGRSLRLSCAASGFTFRSYVMHWVRQAPGKGLEWVAVISHEGSLKYYADSVKGRFTISRDNSKNTLYLQMNSLRAEDTAVYYCARPRIAARRGGFGYWGQGTLVTVSS VL: NFMLTQPHSVSESPGKTVTISCTRSSGNIDNNYVQWYQQRPGSSPTTVIYEDNQRPSGVPDRFSGSIDSSSNSASLTISGLKTEDEADYYCQSYDSDNQGVVFGGGTKLTVL | 8.53 | –
